Substitutions are numbered along the chain they refer to.
B1: BAP-143-wildtype (antibody, V domains shown)
VH: EVQLVESGGGLVQPGGSLRLSCAASGFTFSSYNMNWVRQAPGKGLEWVSYISSSSSTIYYADSVKGRFTISRDNAKNSLSLQMNSLRDEDTAVYYCARAYYYGMDVWGQGTTVTVSS
VL: DIQMTQSPSSVSASVGDRVTITCRASQGISGWLAWYQQKPGKAPKFLIYAASTLQSGVPSRFSGSGSGTDFTLTISSLQPEDFATYYCQQANSFPPTFGGGTKVEIK
notes: 150 kDa used in SPR; also called BAP143-00-00; benchmark (BM)
B2: BAP-143-00-01 (antibody, V domains shown)
VH: B1 VH
VL: B1 VL with L33E
notes: Used as a conjugate with a linker payload (CAB ADC)
B3: BAP-143-00-03 (antibody, V domains shown)
VH: B1 VH
VL: B1 VL with P96D
notes: as for B2
B4: BAP-143-00-04 (antibody, V domains shown)
VH: B1 VH with M34D
VL: B1 VL
notes: as for B2
B5: BAP-143-00-05 (antibody, V domains shown)
VH: B1 VH with R98E
VL: B1 VL
notes: as for B2
B6: BAP-143-00-06 (antibody, V domains shown)
VH: B1 VH with M104D
VL: B1 VL
notes: as for B2
B7: BAP-143-07-03-12 (antibody, V domains shown)
VH: B1 VH with V106K
VL: B1 VL with L33E
notes: as for B2
B8: BAP-143-06-33-03 (antibody, V domains shown)
VH: QVQLVQSGAEVKKPGASVKVSCKASGFTFSSYNMNWVRQARGQRLEWIGYISSSSSTIYYADSVKGRFTISRDNSKNTLYLQMNSLRAEDTAVYYCARAYYYGMDKWGQGTLVTVSS
VL: B1 VL with F94E
notes: as for B2
B9: BAP-143-06-24-16 (antibody, V domains shown)
VH: EVQLVQSGAEVKKPGATVKISCKVSGFTFSSYNMNWIRQSPSRGLEWLGYISSSSSTIYYADSVKGRFTISRDNSKNTLYLQMNSLRAEDTAVYYCARAYYYGDDVWGQGTLVTVSS
VL: B1 VL with R24H
notes: as for B2
B10: BAP-143-06-33-16 (antibody, V domains shown)
VH: B9 VH
VL: B1 VL with L33E
notes: as for B2

Key:
[1] = biological target: T1, recombinant human Nectin4 antigen (human, UniProt Q96NY8 32-349); test: ELISA, coated antigen, PSB pH 7.4
T1 construct: construct not described
T1 sequence (looked up): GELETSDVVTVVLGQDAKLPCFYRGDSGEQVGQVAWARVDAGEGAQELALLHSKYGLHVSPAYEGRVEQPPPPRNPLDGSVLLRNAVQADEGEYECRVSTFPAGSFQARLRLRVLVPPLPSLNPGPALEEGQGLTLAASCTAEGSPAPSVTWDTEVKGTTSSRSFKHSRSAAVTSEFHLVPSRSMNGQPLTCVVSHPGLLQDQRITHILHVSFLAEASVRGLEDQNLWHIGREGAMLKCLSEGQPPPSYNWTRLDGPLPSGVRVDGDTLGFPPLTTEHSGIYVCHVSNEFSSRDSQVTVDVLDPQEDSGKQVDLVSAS
Experimental: 1) Coat ELISA plates with 100 μL of 1 μg/mL recombinant human Nectin4 antigen or cynoNectin4 antigen in carbonate-bicarbonate coating buffer. […] 2) Cover plates with sealing film and incubate overnight at 4° C. [0444] 3) Decant plates and tap out residual liquid on a stack of paper towels. [0445] 4) Wash wells twice by dispensing 200 μL of pH 6.0 or pH 7.4 ELISA incubation buffer to the wells and completely aspirate the contents. [0446] 5) Add 200 μL of pH 6.0 or pH 7.4 ELISA incubation buffer to the wells. Cover with sealing film and place the plate onto a plate shaker set to 50 rpm for 60 minutes at room temperature. [0447] 6) Decant plates and tap out residual liquid on a stack of paper towels. […] 7) Serially dilute test articles in 3-fold dilutions starting at 3000 ng/mL in pH 6.0 or pH 7.4 ELISA incubation buffer. […] 8) Add 100 μL/well of diluted test articles to the plates [0450] 9) Cover with sealing film and place the plates onto a plate shaker set to 50 rpm for 60 minutes at room temperature. [0451] 10) Decant plates and tap out residual liquid on a stack of paper towels. [0452] 11) Wash wells three times by dispensing 200 μL of pH 6.0 or pH 7.4 ELISA wash buffer to the wells and completely aspirate the contents. […] 12) Dilute the HRP secondary antibody at 1:2500 in pH 6.0 or pH 7.4 ELISA incubation buffer. [0454] […] 14) Cover with sealing film and place the plates onto a plate shaker set to 50 rpm for 60 minutes at room temperature. […] 15) Decant plates and tap out residual liquid on a stack of paper towels. […] 16) Wash wells three times by dispensing 200 μL of pH 6.0 or pH 7.4 ELISA wash buffer to the wells and completely aspirate the contents. [0458] 17) Dispense 50 μL per well of the TMB substrate solution into all wells of the plates.

RatNectin4-His [2] = biological target: T2, RatNectin4-His (rat, UniProt D3ZET1 31-348); test: SPR, RatNectin4-His immobilized, pH 6.0
T2 construct: Immobilized on the SPR chip; not shown: His tag
T2 sequence: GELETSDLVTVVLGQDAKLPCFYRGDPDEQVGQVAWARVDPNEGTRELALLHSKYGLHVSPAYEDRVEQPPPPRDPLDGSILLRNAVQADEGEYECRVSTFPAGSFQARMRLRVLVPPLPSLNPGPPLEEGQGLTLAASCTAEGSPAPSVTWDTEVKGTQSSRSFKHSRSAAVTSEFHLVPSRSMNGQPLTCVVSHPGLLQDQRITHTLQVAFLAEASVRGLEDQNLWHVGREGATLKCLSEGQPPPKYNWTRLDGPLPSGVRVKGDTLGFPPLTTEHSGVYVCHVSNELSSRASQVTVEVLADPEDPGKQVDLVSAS
Experimental: (§1) All injections were done at a flow rate of 25 μL/min at 25° C. The sensor surface was activated with 1-ethyl-3-(3-dimethylaminopropyl)-carbodiimide (EDC) and N-hydroxysuccinimide (NHS) (200 mM/50 mM) for 480 seconds. HuNectin4-His (2 μg/mL in 10 mM NaAc, pH4.5) was injected for 480s and the surface was inactivated by injecting 1M ethanolamine-HCl for 480s. CynoNectin4 was immobilized using the same conditions as described for huNectin4-His, except that the cynoNectin4 was diluted into 10 mM NaAc buffer having pH 5.0. The control surface was activated and deactivated using the same conditions, but without injecting protein. PBST buffer (PBS pH 7.4 with 0.05% TWEEN20™) was used as running buffer for the surface preparation. The running solution was switched to PBST with 30 mM sodium bicarbonate with the pH adjusted as indicated in the figures before the analyte injections. The instrument was equilibrated with the running solution for one hour before the first analyte injection.
(§2) The off-rate was measured for 360s. The chip surface was regenerated after each cycle of interaction analysis by injecting 6 μL of 10 mM glycine (pH 2.0). Flow cells 1 and 3 without immobilized protein were used as control surfaces for reference subtraction.
(§3) In addition, data with buffer only as analyte (0 nM analyte) was subtracted from each run. Double subtracted data was fitted with the provided analysis software Analyzer R2 (Sierra Sensors) using a 1:1 binding model. A molecular weight of 150 kDa was used to calculate the molar concentrations of the analytes. RatNectin4-His was immobilized in FC3 using the same conditions as described for cynoNectin4.

RatNectin4-His [3] = biological target: T2, RatNectin4-His; test: SPR, RatNectin4-His immobilized, pH 6.5
Experimental: as §1, §2, §3

RatNectin4-His [4] = biological target: T2, RatNectin4-His; test: SPR, RatNectin4-His immobilized, pH 7.4
Experimental: as §1, §2, §3

cyno Nectin-4 on cells = biological target: T3, cyno Nectin-4 on cells (cyno, UniProt A0A2K5WES1 32-510); test: FACS, HEK293 cells expressing cyno Nectin-4
T3 construct: whole, on cells; also called HEK293 cells expressing cyno Nectin-4; cyno Nectin-4 cells
T3 sequence: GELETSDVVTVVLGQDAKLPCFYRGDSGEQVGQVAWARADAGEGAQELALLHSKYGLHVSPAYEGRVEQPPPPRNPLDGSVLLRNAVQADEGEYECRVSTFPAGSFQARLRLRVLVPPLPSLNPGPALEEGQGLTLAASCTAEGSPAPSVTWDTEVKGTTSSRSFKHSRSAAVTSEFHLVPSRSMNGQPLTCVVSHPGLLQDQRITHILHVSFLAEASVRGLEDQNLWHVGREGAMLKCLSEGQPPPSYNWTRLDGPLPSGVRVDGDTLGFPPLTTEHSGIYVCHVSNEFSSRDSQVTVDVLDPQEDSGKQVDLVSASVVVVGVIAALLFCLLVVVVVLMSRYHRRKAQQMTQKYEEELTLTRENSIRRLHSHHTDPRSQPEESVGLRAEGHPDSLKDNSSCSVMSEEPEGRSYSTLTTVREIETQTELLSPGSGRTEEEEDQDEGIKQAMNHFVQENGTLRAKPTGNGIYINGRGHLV

Binder	EC50 [1]	Kd (RatNectin4-His [2])	Kd (RatNectin4-His [3])	Kd (RatNectin4-His [4])	koff (RatNectin4-His [2])	kon (RatNectin4-His [2])	koff (RatNectin4-His [3])	kon (RatNectin4-His [3])	koff (RatNectin4-His [4])	kon (RatNectin4-His [4])	Ratio (pH 7.4/6.0) of EC50 (cyno Nectin-4 on cells)
B1	0.0202 µg/mL	0.175 nM	0.108 nM	0.135 nM	–	–	–	–	–	–	–
B2	–	1.17 nM	1.36 nM	2.42 nM	0.00159 s⁻¹	1.36e+06 M⁻¹ s⁻¹	0.000953 s⁻¹	700000 M⁻¹ s⁻¹	0.000875 s⁻¹	361000 M⁻¹ s⁻¹	2
B3	0.245 µg/mL	–	–	–	–	–	–	–	–	–	–
B4	0.061 µg/mL	–	–	–	–	–	–	–	–	–	–
B5	0.141 µg/mL	–	–	–	–	–	–	–	–	–	–
B6	0.0698 µg/mL	–	–	–	–	–	–	–	–	–	–
B7	–	0.738 nM	1.1 nM	1.31 nM	0.0012 s⁻¹	1.62e+06 M⁻¹ s⁻¹	0.000868 s⁻¹	787000 M⁻¹ s⁻¹	0.000731 s⁻¹	557000 M⁻¹ s⁻¹	1.8
B8	–	–	–	–	–	–	–	–	–	–	2.7
B9	–	0.104 nM	0.0378 nM	0.171 nM	0.000635 s⁻¹	6.1e+06 M⁻¹ s⁻¹	0.000128 s⁻¹	3.39e+06 M⁻¹ s⁻¹	0.000178 s⁻¹	1.04e+06 M⁻¹ s⁻¹	1.4
B10	–	0.154 nM	0.101 nM	1.94 nM	0.000394 s⁻¹	2.57e+06 M⁻¹ s⁻¹	0.000304 s⁻¹	3.01e+06 M⁻¹ s⁻¹	0.000261 s⁻¹	135000 M⁻¹ s⁻¹	1.5

From patent publication US20230235054A1 (BIOATLA, published 2023)
